Measurements as given in the supplement of paper PMC12042874.
± gives the uncertainty stated by the source.

Assay: amyloid nucleation score (Sup35N fusion, yeast selection) (log enrichment); library NNK3; higher = more nucleation; inactive = no reads after selection
Summary of the method: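 Nucleation score: DiMSum log enrichment of output over input reads, centred on the mode score of non-aggregating sequences. Only sequences with at least 100 input reads were kept. Reads came from Illumina sequencing of plasmid inserts before and after 7 days of growth at 30°C without adenine and uracil, in psi-negative yeast expressing Sup35N fused to peptides of 20 random codons after 24 hours of induction with 100 μM copper sulfate.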
In the case of TIGFIGWWGVFYDTDWLRI, the amyloid nucleation score is reported as -0.566 ± 1.4.
In the case of IWRDLGRLIQLFWNEIYHVN, the amyloid nucleation score is reported as “inactive”.
Substance AYIFIWWKGANKFVSFNKII has an amyloid nucleation score of 0.684 ± 0.27.
For LCALP, the amyloid nucleation score was “inactive”.
In the case of VVLCLFFLLDIFSTGKVYIK, the amyloid nucleation score is reported as “inactive”.
In the case of GYKDIDLTSERGK, the amyloid nucleation score is reported as “inactive”.
In the case of LVVIDTIIHCLFKTAQCAWF, the amyloid nucleation score is reported as “inactive”.
Work on MPWKSMAHFYALEFDLRCLR yielded an amyloid nucleation score of 0.619 ± 0.22.
For MSVQHER, the amyloid nucleation score was “inactive”.
Substance RDRCISFEYAVQTCHYECRP has an amyloid nucleation score of -0.294 ± 0.74.
With SVHWEVRFYMDRYVLAYAVT the amyloid nucleation score was “inactive”.
With VWVLGQLWFF the amyloid nucleation score was “inactive”.
In the case of CCLFMLFMRMRTHL, the amyloid nucleation score is reported as “inactive”.
For KWRYLFDMSW, the amyloid nucleation score was “inactive”.
With MTYVGGSVQYGRSLRHRIDR the amyloid nucleation score was “inactive”.
NALMKSVTFWCSAGISISRL gave an amyloid nucleation score of 1.26 ± 0.11.
For SGVWTF, the amyloid nucleation score was “inactive”.
For KIGSLVKECCGLPVYYALLK, the amyloid nucleation score was “inactive”.
With YGFNNWYKPSDLSRTPSESG the amyloid nucleation score was “inactive”.
For IFFVYLLSANIGCYEWDVVP, the amyloid nucleation score was 0.821 ± 0.12.
For KMQCPNYACGCKDCVYTNFY, the amyloid nucleation score was “inactive”.
For TIFLSSRGVILYTVSCYKFV, the amyloid nucleation score was “inactive”.
Substance GNSVRIAWQVWCTLCMTRQW has an amyloid nucleation score of 0.356 ± 0.22.
In the case of PYVECSWEAQG, the amyloid nucleation score is reported as “inactive”.
For KSLHTGGGLDSRYGS, the amyloid nucleation score was “inactive”.
In the case of LLDDVIRDAMPGSAGRSISG, the amyloid nucleation score is reported as “inactive”.
In the case of VFNRSSAT, the amyloid nucleation score is reported as “inactive”.
With NAFGYSDVTVLVNSSLFESY the amyloid nucleation score was “inactive”.
KSNYEGTFGRHVLGPLKNKW showed an amyloid nucleation score of -0.463 ± 1.8.
With AGDLNYRSGLSGRNYARGFT the amyloid nucleation score was “inactive”.
For VKLSSFCRSNNCWYMRHAFL, the amyloid nucleation score was “inactive”.
For RINSVQGDGVLNLCPRLRVP, the amyloid nucleation score was “inactive”.
For MHATIMVVDRESFHGLGWKS, the amyloid nucleation score was “inactive”.
In the case of SLYVHRSIANGF, the amyloid nucleation score is reported as “inactive”.
In the case of FGCRSNDNQ, the amyloid nucleation score is reported as “inactive”.
With VELTC the amyloid nucleation score was “inactive”.
In the case of TDELYWLKDFLYGFYNMKSP, the amyloid nucleation score is reported as “inactive”.
With DDGGVTVVWTCGRVCIQMGN the amyloid nucleation score was 0.399 ± 0.24.
With GQWELGHFQCKVPYLLSQLL the amyloid nucleation score was “inactive”.
With LHPYHYIWKMAHL the amyloid nucleation score was “inactive”.
In the case of KCMAI, the amyloid nucleation score is reported as “inactive”.
With NLPTLRVVDILCLCFYRIPS the amyloid nucleation score was “inactive”.
With TAESKRH the amyloid nucleation score was “inactive”.
With GNWCSG the amyloid nucleation score was “inactive”.
In the case of GNWSYVENYV, the amyloid nucleation score is reported as “inactive”.
In the case of IKFIPYYCYPCRLIRLRVKC, the amyloid nucleation score is reported as “inactive”.
In the case of SEIVSKVITLQGNICFFGMG, the amyloid nucleation score is reported as “inactive”.
For IPLYHSWSVASLRLRNVVSW, the amyloid nucleation score was “inactive”.
In the case of IRCRQNPGSHVIRYFCCRRS, the amyloid nucleation score is reported as “inactive”.
With FTMSYYKYLSHGRMRRGT the amyloid nucleation score was “inactive”.
SNICKLFCCTESIKSQTRLW gave an amyloid nucleation score of 2.61 ± 0.082.
With IRGIVV the amyloid nucleation score was “inactive”.
With TNYYFQNV the amyloid nucleation score was “inactive”.
For HKWLV, the amyloid nucleation score was “inactive”.
In the case of VTKGWQGLGGLMGGEVCPWV, the amyloid nucleation score is reported as “inactive”.
With IMSRMYDDSFADLVCKHAVD the amyloid nucleation score was “inactive”.
With WLFYLT the amyloid nucleation score was “inactive”.
With WPMMATLQYHDLLLAFLFRK the amyloid nucleation score was “inactive”.
For NDKVGRAL, the amyloid nucleation score was “inactive”.
In the case of PIAHFM, the amyloid nucleation score is reported as “inactive”.
With LSRCMWDSDMYRGERYGRRR the amyloid nucleation score was “inactive”.
For LFFSNT, the amyloid nucleation score was “inactive”.
DFNLFKAQIYLWNSFDVSEF gave an amyloid nucleation score of 0.99 ± 0.14.
With RIGQMFLILVFKGLL the amyloid nucleation score was “inactive”.
For NNFMYPELAPSARRCAWYCG, the amyloid nucleation score was “inactive”.
With WGRGNAAMYGVFRSGNLLVI the amyloid nucleation score was “inactive”.
For GWAMTWNDVYLSYSIYSHSK, the amyloid nucleation score was 0.514 ± 0.4.
For CVDTDLVERWIAWVSSGVML, the amyloid nucleation score was 0.663 ± 0.21.
With WPANGMSRLVNRL the amyloid nucleation score was “inactive”.
In the case of TADIESMIMFNGRVPGHLSV, the amyloid nucleation score is reported as “inactive”.
With GAVFSEWTQVRSCDCDGIDK the amyloid nucleation score was “inactive”.
With DLSSSGCKLSRIFHGHNWSR the amyloid nucleation score was “inactive”.
Substance KWGSATTCFI has an amyloid nucleation score of 0.067 ± 0.31.
For RVFGGEIRLSRTCVVM, the amyloid nucleation score was 1.27 ± 0.17.
With ALIRITRYYLSFTGY the amyloid nucleation score was “inactive”.
For ECPAALLKKIVPYKKLHGRM, the amyloid nucleation score was “inactive”.
TCKCGSALK gave an amyloid nucleation score of 0.384 ± 0.21.
For GRTVTVWMFASVRRGVTGYV, the amyloid nucleation score was “inactive”.
For WRSASGVD, the amyloid nucleation score was “inactive”.
Substance LTGRISIARFEVDLGFGCPS has an amyloid nucleation score of 0.682 ± 0.18.
With QSNCCWVV the amyloid nucleation score was “inactive”.
In the case of RTKKY, the amyloid nucleation score is reported as “inactive”.
AMSTPIGMGEVKFKCFILWL showed an amyloid nucleation score of 0.56 ± 0.18.
For DWYIVRMARCG, the amyloid nucleation score was 0.984 ± 0.12.
With ALFSLSWLNQRDSIWVKSDQ the amyloid nucleation score was “inactive”.
In the case of DTFACCPRWNLCGENTLPYI, the amyloid nucleation score is reported as 2.33 ± 0.06.
For AGPKALIVMPKICDGDIWME, the amyloid nucleation score was “inactive”.
In the case of RMSLNFNSQPRSLVMGNKYS, the amyloid nucleation score is reported as “inactive”.
For CSEVGRS, the amyloid nucleation score was “inactive”.
For FVLVN, the amyloid nucleation score was “inactive”.
With YYLRKVKRKENTSMLHAAFS the amyloid nucleation score was “inactive”.
With SGHSAFGKKGLRGM the amyloid nucleation score was “inactive”.
In the case of GISILLSSYPRMCLLRLVGL, the amyloid nucleation score is reported as “inactive”.
For SADNLDKFRLEMPVSLVRLN, the amyloid nucleation score was “inactive”.
In the case of DGNLWMKSVCCWTKVFIELL, the amyloid nucleation score is reported as 1.37 ± 0.12.
In the case of HKNVCRIQRR, the amyloid nucleation score is reported as “inactive”.
With NSDVYVSFLSVCVFAVRCLL the amyloid nucleation score was “inactive”.
In the case of WKRKRRLRELGITKVILRVL, the amyloid nucleation score is reported as “inactive”.
In the case of IFLIPYA, the amyloid nucleation score is reported as “inactive”.
With ETYKITLRTCLLATAGLREF the amyloid nucleation score was “inactive”.
With VSYGPA the amyloid nucleation score was “inactive”.
With VRTLPDLLPINRKQMVKERM the amyloid nucleation score was “inactive”.
In the case of RRVQKERSLKC, the amyloid nucleation score is reported as “inactive”.
CTVNCMTNNATVLVVRGPLR showed an amyloid nucleation score of 2.26 ± 0.067.
With WNKGPQTQ the amyloid nucleation score was “inactive”.
Substance IVVQSNHAYTLVRTDSLVWM has an amyloid nucleation score of 1.17 ± 0.11.
In the case of LDLFVV, the amyloid nucleation score is reported as “inactive”.
In the case of PINETRSEESLVGSRGM, the amyloid nucleation score is reported as “inactive”.
For NSFIVVIYYRVRSYRYTD, the amyloid nucleation score was “inactive”.
For YVCRRVSQDVRNLTKSVMCV, the amyloid nucleation score was “inactive”.
For DVMSEFLFKYWVVNQQCFTR, the amyloid nucleation score was “inactive”.
For PVKLC, the amyloid nucleation score was “inactive”.
With REAYDLFSCIDYVLNFMFNY the amyloid nucleation score was “inactive”.
For SAAGKQLKSRFIGRR, the amyloid nucleation score was “inactive”.
For LRNTFKCVTIRALGSKGGRA, the amyloid nucleation score was “inactive”.
For ALCKVMSKLPSISW, the amyloid nucleation score was “inactive”.
For TLYRGDKTRNFAMGIKLCMT, the amyloid nucleation score was “inactive”.
With HFSSYAFLRTWTLYRHLTFM the amyloid nucleation score was “inactive”.
With ASFSMG the amyloid nucleation score was “inactive”.
For WLFRRVGMVTHAWMYWFKSR, the amyloid nucleation score was “inactive”.
Substance IVCISLCLAAEKQPSGCEFG has an amyloid nucleation score of 2.01 ± 0.068.
In the case of RGMKDCCTRWALRYWDVSVL, the amyloid nucleation score is reported as “inactive”.
GWLYYQLNLDNTSVRQHWSV showed an amyloid nucleation score of 0.587 ± 0.24.
In the case of RSRYSSLPLPVV, the amyloid nucleation score is reported as “inactive”.
With MSSPAPFWSVNSVLAIKNLF the amyloid nucleation score was “inactive”.
For KRLVGLYIYTGMWLKLLQLV, the amyloid nucleation score was “inactive”.
In the case of YGPKV, the amyloid nucleation score is reported as “inactive”.
For TWSGQGHR, the amyloid nucleation score was “inactive”.
In the case of YMCGSGCF, the amyloid nucleation score is reported as “inactive”.
With AIKLC the amyloid nucleation score was “inactive”.
For FYVNINFSELVSVDTISSFI, the amyloid nucleation score was 0.208 ± 0.31.
For LPKCGPRYFDWLNAPEDCMF, the amyloid nucleation score was “inactive”.
In the case of VRDVDKMC, the amyloid nucleation score is reported as “inactive”.
For YGGDWCARTPCLSRVNSVKP, the amyloid nucleation score was “inactive”.
In the case of YRGKIGTWECGVISYETAAT, the amyloid nucleation score is reported as “inactive”.
In the case of SSSPVMYCMFLRSRSGRDYK, the amyloid nucleation score is reported as “inactive”.
Work on ITIMSDQETSHVWLVDRTLP yielded an amyloid nucleation score of 0.298 ± 0.17.
With NWTQSIFVGGQRDRLVISRT the amyloid nucleation score was “inactive”.
With DEGKSNPPF the amyloid nucleation score was “inactive”.
In the case of CMSPYWML, the amyloid nucleation score is reported as “inactive”.
With TYLVMS the amyloid nucleation score was “inactive”.
For DIWFGSSKKSVMRV, the amyloid nucleation score was “inactive”.
In the case of MALWASSKAEVIVVIKCLGD, the amyloid nucleation score is reported as “inactive”.
Substance QSRSRSNARARWVVSKLSCS has an amyloid nucleation score of 0.21 ± 0.53.
Work on RDCTMYNTYFIWNIYPG yielded an amyloid nucleation score of 3.42 ± 0.07.
In the case of HMEYLKQLFFRTVLFTDQSV, the amyloid nucleation score is reported as “inactive”.
In the case of LDVVYRDIIDFRVLVESVYF, the amyloid nucleation score is reported as “inactive”.
With NGELLCKGH the amyloid nucleation score was “inactive”.
With LISLPVG the amyloid nucleation score was -0.254 ± 0.7.
In the case of FFTSTLLSRPNVPNIYSISR, the amyloid nucleation score is reported as “inactive”.
For IALGWFVIRFDEVVKLFKMF, the amyloid nucleation score was “inactive”.
With FRKTRIALFLPLTLDF the amyloid nucleation score was “inactive”.
Substance IVSVQVVLLYQM has an amyloid nucleation score of 1.12 ± 0.14.
In the case of AVWNFTQFYAENEGHNVSLS, the amyloid nucleation score is reported as “inactive”.
In the case of EFMILDLCMG, the amyloid nucleation score is reported as “inactive”.
With CVFRWMLFSASEYDGRILKW the amyloid nucleation score was “inactive”.
With YCTGLIFPAFSNLEDSTLLF the amyloid nucleation score was “inactive”.
Substance YISSPSIWLCISCEHRGTSA has an amyloid nucleation score of 2.92 ± 0.07.
With LYWMVSMTTDR the amyloid nucleation score was “inactive”.
In the case of YSVAHQIPDDDRQGE, the amyloid nucleation score is reported as “inactive”.
In the case of KRWTQINYFDWRLLRFATRS, the amyloid nucleation score is reported as “inactive”.
For ISLGVMCYYVPIPGCECTNI, the amyloid nucleation score was “inactive”.
